The values that follow are results of earlier work, collected in article PMC4621241.

In this series the target is MetQ (Escherichia coli) (UniProt P28635).
MetQ (Escherichia coli), sequence (P28635 23-271): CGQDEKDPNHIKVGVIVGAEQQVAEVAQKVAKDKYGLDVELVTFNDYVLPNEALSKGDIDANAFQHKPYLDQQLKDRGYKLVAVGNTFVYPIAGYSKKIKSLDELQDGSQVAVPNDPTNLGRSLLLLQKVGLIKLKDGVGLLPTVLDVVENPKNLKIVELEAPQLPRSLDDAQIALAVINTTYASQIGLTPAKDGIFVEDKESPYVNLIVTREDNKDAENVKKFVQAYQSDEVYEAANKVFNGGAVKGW

MetNI, sequence (P30750 whole entry): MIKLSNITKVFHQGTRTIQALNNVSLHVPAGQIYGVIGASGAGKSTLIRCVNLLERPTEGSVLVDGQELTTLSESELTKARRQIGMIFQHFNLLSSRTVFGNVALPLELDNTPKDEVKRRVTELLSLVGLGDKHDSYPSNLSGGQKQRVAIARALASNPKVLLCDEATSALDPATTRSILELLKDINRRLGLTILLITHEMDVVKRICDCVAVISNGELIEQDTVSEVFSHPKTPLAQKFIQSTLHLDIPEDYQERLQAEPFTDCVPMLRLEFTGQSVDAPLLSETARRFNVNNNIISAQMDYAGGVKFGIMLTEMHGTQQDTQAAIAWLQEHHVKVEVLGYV
MetNI, sequence (P31547 whole entry, further chain): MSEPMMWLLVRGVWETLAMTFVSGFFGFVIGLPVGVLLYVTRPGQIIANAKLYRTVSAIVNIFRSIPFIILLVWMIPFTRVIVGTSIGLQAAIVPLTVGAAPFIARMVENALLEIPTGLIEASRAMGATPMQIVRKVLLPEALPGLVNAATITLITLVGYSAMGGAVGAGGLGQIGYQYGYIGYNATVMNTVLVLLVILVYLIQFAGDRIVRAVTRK

One may read the Kd as the concentration at which binding is half-saturated. On to MetNI (from UniProt P30750), for which the dissociation constant Kd was 74 µM.
